The results in this text go back to patent US20040071690A1.

Experiment [1] addresses NC41 Fab. In words: gel filtration FPLC on Superose 12. In general terms: In gel filtration, larger molecules generally elute earlier.
Experiment [2] addresses NC41 Fab. In words: sedimentation equilibrium of the isolated complex.
The target of experiment [3] is NC41 Fab. In words: BIAcore SPR; NC41 Fab immobilised, scFv as analyte (apparent, multivalent). (Surface plasmon resonance follows binding to a sensor surface in real time, without labels.)
The target of experiment [4] is NC41 Fab. Description: BIAcore SPR; NC41 Fab immobilised, scFv as analyte.
Experiment [5] has as its target NC10 scFv-5 dimer. Description: BIAcore SPR; scFv-5 dimer immobilised (200 RU), Fab′ as analyte.
The target in experiment [6] is NC10 scFv-0 trimer (VH-VL). Description: BIAcore SPR; scFv-0 trimer immobilised (450 RU), Fab′ as analyte.
Experiment [7] concerns the target NC10 scFv-10 dimer. Description: BIAcore SPR; scFv-10 dimer immobilised (200 RU), Fab′ as analyte.
The target of experiment [8] is NC10 scFv-15 monomer. Description: BIAcore SPR; scFv-15 monomer immobilised (2000 RU), Fab′ as analyte.
The target in experiment [9] is NC10 scFv-15 monomer. In words: BIAcore SPR; scFv-15 monomer immobilised (~2000 RU), from the RU increase.
Experiment [10] has as its target Anti-idiotype 3-2G12 Fab′. Description: sedimentation equilibrium of the isolated complex, fitted as a single species.
For experiment [11], the target named is Anti-idiotype 3-2G12 Fab′. In words: sedimentation equilibrium of the isolated complex.
Experiment [12] deals with Anti-idiotype 3-2G12 Fab′. In words: BIAcore SPR; 3-2G12 Fab′ immobilised (1000 RU), scFv as analyte.

Where only a bound is given, the exact number is not on record here.

In the case of 11-1G10 scFv-0 trimer, in experiment [1], the apparent molecular mass of complex came to 245 kDa. For the same substance, the molecular mass of complex (experimental) in experiment [2] worked out at 262000 Da. Besides, in experiment [3], the off-rate constant (koff) (as a rule, the first-order rate constant of dissociation) amounted to 8.2e-05 s⁻¹.

Turning to 11-1G10 scFv-15 monomer, the apparent molecular mass of complex in [1] was determined as 79 kDa. The same substance registered a molecular mass of complex (experimental) in experiment [2] of 78600 Da. This substance also came in with a koff in experiment [4] of 0.00032 s⁻¹.

On to Anti-idiotype 3-2G12 Fab′, for which the Ka was 1.06e+08 M⁻¹ in experiment [5], 1.13e+08 M⁻¹ in [6], 1.3e+08 M⁻¹ in experiment [7] and 2.5e+08 M⁻¹ in experiment [8]. Also, the off-rate (koff) in experiment [5] was determined as 0.0033 s⁻¹; in experiment [6], 0.0023 s⁻¹; in experiment [7] it was 0.0029 s⁻¹; in experiment [8], 0.0021 s⁻¹. For the same substance, the on-rate constant (kon) (as a rule, the second-order rate constant of association) in [5] was 350000 M⁻¹ s⁻¹; in experiment [6], 260000 M⁻¹ s⁻¹; in experiment [7], 370000 M⁻¹ s⁻¹; in [8] it was 500000 M⁻¹ s⁻¹. In experiment [9], this substance displayed a percent of immobilised protein active of under 10%.

Consider NC10 scFv-0 trimer (VH-VL), for which, in experiment [10], the molecular mass of complex (measured, apparent average) was 212000 Da.

For the substance NC10 scFv-5 dimer, the molecular mass of complex (measured) in experiment [11] came out at 156000 Da.

In turn, NC10 scFv-15 monomer had a molecular mass of complex (measured) in [11] of 77900 Da. In [12], this substance returned a Ka of 4.2e+08 M⁻¹, an off-rate (koff) of 0.00174 s⁻¹ and a kon of 740000 M⁻¹ s⁻¹.
